Data as given in paper PMC11672854.

T1: Thioredoxin (TXN), P10599
T1 chain: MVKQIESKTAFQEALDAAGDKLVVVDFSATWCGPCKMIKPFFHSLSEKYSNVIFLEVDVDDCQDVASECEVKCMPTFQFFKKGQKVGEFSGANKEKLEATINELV


Tests used:
Assay in all cases: ELISA
[1] = molecular target: PDI (PDIA1), P07237; conditions: chain shown with the change; plates coated with AGR2 or PDI (PDIA1); parent: 40
[2] = molecular target: BSA, P02769; conditions: chain shown with the change; plates coated with AGR2 or BSA (control); parent: 101
[3] = molecular target: T1, Thioredoxin (TXN), P10599; conditions: chain shown with the change; plates coated with AGR2 or thioredoxin (TXN); parent: 30
[4] = molecular target: anti-AGR2 monoclonal antibody MAb-15 (VH-VL of scFv-15 in a full human IgG1 backbone); conditions: chain shown with the change; point at 1000 pM mAb-15 (highest concentration); plate coated with the AGR2 mutant; parent: est. 2.8; read off a plot
Chain of anti-AGR2 monoclonal antibody MAb-15 (VH-VL of scFv-15 in a full human IgG1 backbone) (chain, as listed by the source, chain 1 of 2, one chain of several): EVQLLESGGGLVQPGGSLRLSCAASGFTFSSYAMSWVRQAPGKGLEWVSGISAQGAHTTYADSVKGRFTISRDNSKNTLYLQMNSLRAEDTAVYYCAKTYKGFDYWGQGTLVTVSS

Chain of PDI (PDIA1), P07237 (P07237 18-508): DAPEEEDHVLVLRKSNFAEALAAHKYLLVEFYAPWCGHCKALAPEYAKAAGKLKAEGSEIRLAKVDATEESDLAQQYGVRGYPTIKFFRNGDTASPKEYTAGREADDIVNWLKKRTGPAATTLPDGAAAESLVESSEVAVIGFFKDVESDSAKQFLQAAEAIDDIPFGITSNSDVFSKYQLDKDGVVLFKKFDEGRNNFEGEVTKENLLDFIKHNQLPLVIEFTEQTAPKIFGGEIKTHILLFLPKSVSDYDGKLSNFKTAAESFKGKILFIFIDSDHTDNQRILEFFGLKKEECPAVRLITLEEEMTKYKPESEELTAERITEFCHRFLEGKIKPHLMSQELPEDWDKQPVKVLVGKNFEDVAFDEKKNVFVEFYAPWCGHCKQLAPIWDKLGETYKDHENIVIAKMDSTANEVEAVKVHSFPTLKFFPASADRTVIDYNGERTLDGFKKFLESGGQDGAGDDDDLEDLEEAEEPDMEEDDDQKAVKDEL
Chain of BSA, P02769 (P02769 25-607): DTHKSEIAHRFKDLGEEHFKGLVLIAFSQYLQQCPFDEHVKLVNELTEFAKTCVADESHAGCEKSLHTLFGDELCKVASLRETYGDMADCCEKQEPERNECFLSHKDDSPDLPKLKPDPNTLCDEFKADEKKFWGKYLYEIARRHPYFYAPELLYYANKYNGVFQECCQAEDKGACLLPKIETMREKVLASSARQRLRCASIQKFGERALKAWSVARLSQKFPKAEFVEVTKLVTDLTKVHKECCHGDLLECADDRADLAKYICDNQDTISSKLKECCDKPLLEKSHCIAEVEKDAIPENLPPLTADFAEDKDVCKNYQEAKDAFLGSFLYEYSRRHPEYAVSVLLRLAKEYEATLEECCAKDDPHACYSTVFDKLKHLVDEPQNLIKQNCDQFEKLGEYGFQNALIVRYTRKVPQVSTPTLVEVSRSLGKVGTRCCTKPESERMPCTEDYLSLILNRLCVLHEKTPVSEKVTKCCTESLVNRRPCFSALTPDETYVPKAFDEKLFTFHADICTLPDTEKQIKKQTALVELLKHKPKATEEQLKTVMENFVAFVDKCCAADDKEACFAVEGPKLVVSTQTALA

other: AGR2 Specificity, PDI/AGR2 (EC50 relative to AGR2 binding) [1] | other: AGR2 Specificity, BSA/AGR2 (EC50 relative to AGR2 binding) [2] | other: AGR2 Specificity, TXN/AGR2 (EC50 relative to AGR2 binding) [3] | response [4] | Binder
451 | 751 | 266 | – | anti-AGR2 monoclonal antibody MAb-15 (VH-VL of scFv-15 in a full human IgG1 backbone) S31R; A53Y (protein) chain 1: EVQLLESGGGLVQPGGSLRLSCAASGFTFSRYAMSWVRQAPGKGLEWVSGISYQGAHTTYADSVKGRFTISRDNSKNTLYLQMNSLRAEDTAVYYCAKTYKGFDYWGQGTLVTVSS chain 2: DIQMTQSPSSLSASVGDRVTITCRASQSISSYLNWYQQKPGKAPKLLIYSASRLQSGVPSRFSGSGSGTDFTLTISSLQPEDFATYYCQQGRRMPPTFGQGTKVEIK
– | – | – | 2.3 OD450 | Anterior Gradient-2 (AGR2/PDIA17), AGR2 (21-175), 6x-His tag removed, O95994 E60A (protein) RDTTVKPGAKKDTKDSRPKLPQTLSRGWGDQLIWTQTYEAALYKSKTSNKPLMIIHHLDECPHSQALKKVFAENKEIQKLAEQFVLLNLVYETTDKHLSPDGQYVPRIMFVDPSLTVRADITGRYSNRLYAYEPADTALLLDNMKKALKLLKTEL
– | – | – | 2.8 OD450 | Anterior Gradient-2 (AGR2/PDIA17), AGR2 (21-175), 6x-His tag removed, O95994 C81A (protein) RDTTVKPGAKKDTKDSRPKLPQTLSRGWGDQLIWTQTYEEALYKSKTSNKPLMIIHHLDEAPHSQALKKVFAENKEIQKLAEQFVLLNLVYETTDKHLSPDGQYVPRIMFVDPSLTVRADITGRYSNRLYAYEPADTALLLDNMKKALKLLKTEL
– | – | – | 2.3 OD450 | Anterior Gradient-2 (AGR2/PDIA17), AGR2 (21-175), 6x-His tag removed, O95994 C81A; S84A (protein) RDTTVKPGAKKDTKDSRPKLPQTLSRGWGDQLIWTQTYEEALYKSKTSNKPLMIIHHLDEAPHAQALKKVFAENKEIQKLAEQFVLLNLVYETTDKHLSPDGQYVPRIMFVDPSLTVRADITGRYSNRLYAYEPADTALLLDNMKKALKLLKTEL
– | – | – | 2.7 OD450 | Anterior Gradient-2 (AGR2/PDIA17), AGR2 (21-175), 6x-His tag removed, O95994 S84A (protein) RDTTVKPGAKKDTKDSRPKLPQTLSRGWGDQLIWTQTYEEALYKSKTSNKPLMIIHHLDECPHAQALKKVFAENKEIQKLAEQFVLLNLVYETTDKHLSPDGQYVPRIMFVDPSLTVRADITGRYSNRLYAYEPADTALLLDNMKKALKLLKTEL
